Laboratory results taken from article PMC3863769.

Target: mPVR-Ig (extracellular portion of mouse PVR fused to the Fc portion of human IgG1) (mouse)
Experiment: SPR

Kd: 5.16 µM | koff: 0.00259 s⁻¹ | kon: 502 M⁻¹ s⁻¹
B1: mDNAM1-Ig (extracellular portion of mouse DNAM1 fused to the Fc portion of human IgG1) (Fc fusion)
chain: EETLWDTTVRLSETMTLECVYPLTHNLTQVEWTKNTGTKTVSIAVYNPNHNMHIESNYLHRVHFLNSTVGFRNMSLSFYNASEADIGIYSCLFHAFPNGPWEKKIKVVWSDSFEIAAPSDSYLSAEPGQDVTLTCQLPRTWPVQQVIWEKVQPHQVDILASCNLSQETRYTSKYLRQTRSNCSQGSMKSILIIPNAMAADSGLYRCRSEAITGKNKSFVIRLIITDGGTNKHFILP
